How the values were obtained:
[1] = biological target: CD63(ECD)-ALP conjugate (human; bovine); experiment: HI-1000 capture immunoassay; calibrator C3, 62.5 ng/mL; run 1
[2] = biological target: CD63(ECD)-ALP conjugate (human; bovine); experiment: HI-1000 capture immunoassay; calibrator C3, 62.5 ng/mL; mean of 3
[3] = biological target: CD63(ECD)-ALP conjugate (human; bovine); experiment: HI-1000 capture immunoassay; calibrator C5, 1563 ng/mL; run 1
[4] = biological target: CD63(ECD)-ALP conjugate (human; bovine); experiment: HI-1000 capture immunoassay; calibrator C3, 22.84 mU/L; run 1
[5] = biological target: CD63(ECD)-ALP conjugate (human; bovine); experiment: HI-1000 capture immunoassay; calibrator C3, 22.84 mU/L; mean of 3
[6] = biological target: CD63(ECD)-ALP conjugate (human; bovine); experiment: HI-1000 capture immunoassay; calibrator C3, 22.84 mU/L; run 2
[7] = biological target: CD63(ECD)-ALP conjugate (human; bovine); experiment: HI-1000 capture immunoassay; calibrator C3, 62.5 ng/mL; run 3
[8] = biological target: CD63(ECD)-ALP conjugate (human; bovine); experiment: HI-1000 capture immunoassay; calibrator C3, 22.84 mU/L; run 3
[9] = biological target: CD63(ECD)-ALP conjugate (human; bovine); experiment: HI-1000 capture immunoassay; calibrator C4, 313 ng/mL; run 1
[10] = biological target: CD63(ECD)-ALP conjugate (human; bovine); experiment: HI-1000 capture immunoassay; calibrator C5, 365.43 mU/L; run 2
[11] = biological target: CD63(ECD)-ALP conjugate (human; bovine); experiment: HI-1000 capture immunoassay; calibrator C1, 1.43 mU/L; run 2
[12] = biological target: CD63(ECD)-ALP conjugate (human; bovine); experiment: HI-1000 capture immunoassay; calibrator C5, 365.43 mU/L; run 3
[13] = biological target: CD63(ECD)-ALP conjugate (human; bovine); experiment: HI-1000 capture immunoassay; calibrator C1, 1.43 mU/L; mean of 3
[14] = biological target: CD63(ECD)-ALP conjugate (human; bovine); experiment: HI-1000 capture immunoassay; calibrator C3, 62.5 ng/mL; run 2
[15] = biological target: CD63(ECD)-ALP conjugate (human; bovine); experiment: HI-1000 capture immunoassay; calibrator C5, 365.43 mU/L; run 1
[16] = biological target: CD63(ECD)-ALP conjugate (human; bovine); experiment: HI-1000 capture immunoassay; calibrator C4, 313 ng/mL; run 2
[17] = biological target: CD63(ECD)-ALP conjugate (human; bovine); experiment: HI-1000 capture immunoassay; calibrator C2, 5.71 mU/L; run 1
[18] = biological target: CD63(ECD)-ALP conjugate (human; bovine); experiment: HI-1000 capture immunoassay; calibrator C5, 1563 ng/mL; mean of 3
[19] = biological target: CD63(ECD)-ALP conjugate (human; bovine); experiment: HI-1000 capture immunoassay; calibrator C5, 1563 ng/mL; run 3
[20] = biological target: CD63(ECD)-ALP conjugate (human; bovine); experiment: HI-1000 capture immunoassay; calibrator C1, 1.43 mU/L; run 3
[21] = biological target: CD63(ECD)-ALP conjugate (human; bovine); experiment: HI-1000 capture immunoassay; calibrator C2, 12.5 ng/mL; run 1
[22] = biological target: CD63(ECD)-ALP conjugate (human; bovine); experiment: HI-1000 capture immunoassay; calibrator C2, 12.5 ng/mL; run 3
[23] = biological target: CD63(ECD)-ALP conjugate (human; bovine); experiment: HI-1000 capture immunoassay; calibrator C2, 5.71 mU/L; run 2
[24] = biological target: CD63(ECD)-ALP conjugate (human; bovine); experiment: HI-1000 capture immunoassay; calibrator C4, 91.36 mU/L; run 3
[25] = biological target: CD63(ECD)-ALP conjugate (human; bovine); experiment: HI-1000 capture immunoassay; calibrator C4, 313 ng/mL; run 3
[26] = biological target: CD63(ECD)-ALP conjugate (human; bovine); experiment: HI-1000 capture immunoassay; calibrator C2, 5.71 mU/L; run 3
[27] = biological target: CD63(ECD)-ALP conjugate (human; bovine); experiment: HI-1000 capture immunoassay; calibrator C2, 12.5 ng/mL; mean of 3
[28] = biological target: CD63(ECD)-ALP conjugate (human; bovine); experiment: HI-1000 capture immunoassay; calibrator C2, 5.71 mU/L; mean of 3
[29] = biological target: CD63(ECD)-ALP conjugate (human; bovine); experiment: HI-1000 capture immunoassay; calibrator C1, 2.5 ng/mL; mean of 3
[30] = biological target: CD63(ECD)-ALP conjugate (human; bovine); experiment: HI-1000 capture immunoassay; calibrator C5, 365.43 mU/L; mean of 3
[31] = biological target: CD63(ECD)-ALP conjugate (human; bovine); experiment: HI-1000 capture immunoassay; calibrator C1, 2.5 ng/mL; run 1
[32] = biological target: CD63(ECD)-ALP conjugate (human; bovine); experiment: HI-1000 capture immunoassay; calibrator C4, 91.36 mU/L; run 1
[33] = biological target: CD63(ECD)-ALP conjugate (human; bovine); experiment: HI-1000 capture immunoassay; calibrator C5, 1563 ng/mL; run 2
[34] = biological target: CD63(ECD)-ALP conjugate (human; bovine); experiment: HI-1000 capture immunoassay; calibrator C4, 313 ng/mL; mean of 3
[35] = biological target: CD63(ECD)-ALP conjugate (human; bovine); experiment: HI-1000 capture immunoassay; calibrator C2, 12.5 ng/mL; run 2
[36] = biological target: CD63(ECD)-ALP conjugate (human; bovine); experiment: HI-1000 capture immunoassay; calibrator C4, 91.36 mU/L; mean of 3
[37] = biological target: CD63(ECD)-ALP conjugate (human; bovine); experiment: HI-1000 capture immunoassay; calibrator C1, 2.5 ng/mL; run 3
[38] = biological target: CD63(ECD)-ALP conjugate (human; bovine); experiment: HI-1000 capture immunoassay; calibrator C1, 2.5 ng/mL; run 2
[39] = biological target: CD63(ECD)-ALP conjugate (human; bovine); experiment: HI-1000 capture immunoassay; calibrator C1, 1.43 mU/L; run 1
[40] = biological target: CD63(ECD)-ALP conjugate (human; bovine); experiment: HI-1000 capture immunoassay; calibrator C4, 91.36 mU/L; run 2

CD63(ECD)-ALP conjugate (human; bovine), sequence (chain, as listed by the source, chain 1 of 2): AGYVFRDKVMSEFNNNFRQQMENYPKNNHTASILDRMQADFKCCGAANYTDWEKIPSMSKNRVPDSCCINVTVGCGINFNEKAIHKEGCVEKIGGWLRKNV
CD63(ECD)-ALP conjugate (human; bovine), sequence (P19111 20-506, chain 2 of 2): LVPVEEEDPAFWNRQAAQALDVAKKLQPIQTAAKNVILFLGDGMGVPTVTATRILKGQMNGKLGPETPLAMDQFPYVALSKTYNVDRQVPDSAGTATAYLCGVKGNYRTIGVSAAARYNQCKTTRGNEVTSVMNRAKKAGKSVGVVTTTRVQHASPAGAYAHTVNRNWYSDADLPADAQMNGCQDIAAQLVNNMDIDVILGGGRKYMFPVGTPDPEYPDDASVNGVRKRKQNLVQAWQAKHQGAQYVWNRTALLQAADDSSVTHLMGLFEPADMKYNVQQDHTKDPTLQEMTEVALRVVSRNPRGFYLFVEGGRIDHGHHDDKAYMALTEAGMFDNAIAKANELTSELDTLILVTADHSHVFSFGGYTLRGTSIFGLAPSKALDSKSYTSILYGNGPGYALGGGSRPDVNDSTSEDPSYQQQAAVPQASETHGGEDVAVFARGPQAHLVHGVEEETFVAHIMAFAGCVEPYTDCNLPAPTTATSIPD

anti-CD63 antibody (Clone: H5C6)
Count [1]: 8690 count
Count (av) [2]: 8810 count
Count [3]: 218000 count
Count value [4]: 9140 count
Count value (av) [5]: 9160 count
Count value [6]: 9240 count
Count [7]: 8490 count
Count value [8]: 9080 count
Count [9]: 41700 count
Count value [10]: 212000 count
Count value [11]: 871 count
Count value [12]: 207000 count
Count value (av) [13]: 896 count
Count [14]: 9250 count
Count value [15]: 206000 count
Count [16]: 41300 count
Count value [17]: 2260 count
Count (av) [18]: 212000 count
Count [19]: 213000 count
Count value [20]: 916 count
Count [21]: 2160 count
Count [22]: 2260 count
Count value [23]: 2380 count
Count value [24]: 42700 count
Count [25]: 42800 count
Count value [26]: 2240 count
Count (av) [27]: 2180 count
Count value (av) [28]: 2290 count
Count (av) [29]: 755 count
Count value (av) [30]: 208000 count
Count [31]: 770 count
Count value [32]: 43000 count
Count [33]: 205000 count
Count (av) [34]: 41900 count
Count [35]: 2120 count
Count value (av) [36]: 42600 count
Count [37]: 743 count
Count [38]: 751 count
Count value [39]: 900 count
Count value [40]: 42200 count
